This note sets out measurements from article PMC3396760.

The series is described as follows: in-culture cell surface labelling with cell-impermeable BG-682. The following applies: glycan lost; control: wild type SNAP-Crb3a.

B1: Crumbs3a (Crb3a): N36D (protein)
parent chain: MANPGLGLLLALGLPFLLARWGRAWGQIQTTSANENSTVLPSSTSSSSDGNLRPEAITAIIVVFSLLAALLLAVGLALLVRKLREKRQTEGTYRPSSEEQVGARVPPTPNLKLPPEERLI
Turning to B1, the localisation_or_trafficking entry is “no change”.
